Patent US20220002423A1 (GENERAL HOSPITAL, published 2022)

Key:
[1] = target: T1, Amino acid residues 106-125 of human TNFR2 (human); experiment: ELISA on TNFR2 peptide fragment; categorical score, 0 lowest to 4 highest affinity
T1 sequence (peptide): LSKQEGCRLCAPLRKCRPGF

[2] = target: T2, Amino acid residues 26-45 of human TNFR2 (human); experiment: as above
T2 sequence (peptide): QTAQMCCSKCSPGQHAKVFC

Affinity Score [1]: 2
Affinity Score [2]: 1
B1: agonistic TNFR2 antibody TNFRAG1 (antibody, V domains shown)
VH: EVQLQQFGAELVKPGASVKISCKASGYTFTDYNIDWVKQSHGKSLEWIGDINPNYDSTSYSQKFRGKATLTVDKSSSTAYMELRSLTSEDTAVYYCARGNSWYFDVWGAGTTVTVSS
VL: QIVLTQSPALMSASPGEKVTMTCSASSSVRYMYWYQQKPRSSPKPWIYLTSNLASGVPARFSGSGSGTSYSLTISSMEAEDAATYYCQQWSSNPLTFGAGTKLELK
notes: the primary antibodies were detected with secondary antibodies against rodent IgG; also called monoclonal TNFR2 antibody TNFRAG1; TNFR2 agonist antibody
